These results are taken from a protein production outcome set (Wang et al. 2014).

The series is described as follows: label from the status in PepcDB records.

Take “MMLSATQPLSEKLPAHGCRHVAIIMDGNGRWAKKQGKIRAFGHKAGAKSVRRAVSFAANNGIEALTLYAFSSENWNRPAQEVSALMELFVWALDSEVKSLHRHNVRLRIIGDTSRFNSRLQERIRKSEALTAGNTGLTLNIAANYGGRWDIVQGVRQLAEKVQQGNLQPDQIDEEMLNQHVCMHELAPVDLVIRTGGEHRISNFLLWQIAYAELYFTDVLWPDFDEQDFEGALNAFANRERRFGGTEPGDETA”: the protein production result is recorded as “not failed”. “MMNDIAHNLAQVRDKISAAATRCGRSPEEITLVAVSKTKPASAIAEAIDAGQRQFSEHYVQEGVDKIRHFQELGVTGLEWNFAGPLQSNKSRLVAEHFDWCITIDRLRIATRLNDQRPAELPPLNVLIQINISDENSKSGIQLAELDELAAAVAELPRLRLRGLSAIPAPESEYVRQFEVARQMAVAFAGLKTRYPHIDTLALGQSDDMEAAIAAGSTMVAIGTAIFGARDYSKKGSLEHHHHHH”: the protein production result is given as “not failed”. Consider “MMNIRSKYAVYIFPLLLILFFVGTASALPTVAHDRVQGEMYVASTANWDSHYSTNSFDVPNGTVVFARYYVGVWASGTPSSISATFNGHAFETNPSYYISGMGVTWIPFNVTDYVQPGETNTATIDSSHWGDGRQYGSTLVVVLENENKPEVEYWIAEGLDWVIGYGSSTTYFNDTNIDLDDVDSASLYSTILTGYSSESLNGESLSGAVDSVSGAYFNYIRWDNVKDSLTAENQTIKVVGDGDYTSAVLHGLSITYKIPDLVPTSLTPSYVTPGTVNTMTATIENTDKDSPSFNVSLIADGTVVDTQDVSGIAAGGSTTVDLQWTPEGGKDSYSLTVVVDPDNSVVESEETNNELTVLVGSASVEVPVANFTAVPTSGSIPLTVNFTDQSTNSPTSWFWDFGDGENSTSQNPSHTYTSVGNHTVSLTVTNAEGSDSEVKTDYITVEVITPVAAFTADNTSGAAPFTVQFTDQSANLPAEWFWDFGDGTNSTEQNPAHTYITAGKYTVKLTTANAAGNDSEEKTDYITAYIPPVANFTATPTSGGAPLTVTFTDTSTNMPTEWLWDFGDGVNSTDQNPIHTYTSAGNYTVSFTATNSGGSDSELKTAYITVTAEAGKGGLADTAWPKFHYDLGNTGQSPYTGPQTANVVWTYTTTGEMRLGQGAVIGSDGTMYIGDRSGTLYAINPNGTLKWGTSIGTKSFPTPAIASDGTIYAGGNDKIVYAINPDGSIKWSYPVGTKSVISSPAIASDGTIYFATSTNLFALKPDGTLKWNSAVSYGGYNYFSPAIGSDGTIYLGTYGGALSAINADGTLKWTYSIPAPNNYIYDTPAIASDGTIYFGCNNANLYALNPDGTLKWTYSVGTSASQAIKSSPAIGSDGTIYFGSNNQYFYALYPDGTLKWSSKAGSFGQTTPTIGSDGTIYIDNYGSKTLYAFNPDGTVKWSYADGNYNYASPAIASDGTLYFGKGYTVYAFRDVAPVSNFTADPTSGTAPLTVNFTDQSTGSPTSWFWDFGDGANSTEQNPVHTYSVAGNYTTNLTVTNSAGTDFEVKTDYITVLEPSTPEPEPVAAFTADVTSGSAPLTVNFTDQSTGSPTSWLWDFGDGTNSTEQNPVHTYASAGSYTVNLTVENDAGSDFELKTDYIEVSEISGSTVTLYFDPESSSVAENESTEISLVASNFPAGLSGYNLTVAIDDPAVAEIVGIEYPTWALITENSTLPGTSIYMKTVDLEDSIKEEEGEVVLATLTVSGKEKGSANISIGVKRLEDDSGDSIEPALLTGTIEVTILSLLPDQEYAPKDLDGDGLYEDLTGNGEFSFVDIVAYFHNMDWIEENMPVEYFDFNGNGRIDFDDVVDMFAMI”, for which the protein production result was “failed”. Turning to “MMNKNKTLEYYNKNADNFAKTTINVDFYETQNRFSTLLPEHGYILDFGCGSGRDTKYFLDQGFYVDATDGSEEMCHIASNYTGIQVRRLLFEELDENKKYDGIWACSSILHLPKNELKAVFMKMLKALKEDGIIYTSFKYGDFEGERNGRYFTDFTEKTFEEFVGEIDNLQLKEEWITGDVRPGRGEEKWLNVILQKN”, the protein production result is recorded as “failed”. For the sequence “MMNLPKNIQQPLSLIYLDANATTQVLPQAASAALSTMETLFGNPSSSHISGLQAKQIVDKTRQQAKRIVGAAEGKIIFTSGATEGIQTAILSALVNVKKTLNKSLNNKSYSLLYGATEHKAVPESLKHWNKILEINAEIKAIPVDEKGQLDMAFIAKEVPNALMVCTMAVNNETGVYQDISLLDQTIRTNNPNVAWMVDCVQALGKTDLVLAQTSIDYAPFSGHKLYAPKGIGFMYVKEKAPFTAFIAGGGQESGLRSGTENLPGLAALSEIFSMLLGESEASFTPIKTLHLYRQQLVSALTQAFPEITFNHSFENSVATTLNFAIPGFSSKEIMDLFDAANIRVSSGSACSSKVTRSFVLDAMGLPAWQSESAIRMSFGPAMTQTEIDIACSRIVSAAQALVQSCLTLDKKNIDTQTMNTSSTTNKTELDGLVQFKAGGSCSWLYVDKKTRSAVFIDPLSEVSERLQTLLTCRGLNLVAVIDTHGHADHKSCRNGIAKKFLAEQQTEYLGWPAGAQTTTIHGQTFQYLILGDKWLIKVATPGHTDDSMSLLLCDPVTDSAEKLQVHYAFCGDLILMDSIGRSNFSTSSAPAMYSSLKLMKSLIGNNSLICPSHDYHNEFTTCLETEMKRNSLLRQVINSEIDIEEFTSKKIKMDKDIINESGSEIMCGALIGACQKVVVREYDSASLTKAVKKSSDMKLIDIREPHEYALQHDEKFTSNVPLTRLVQFVKEQQQNKEQEFVLVCRSGGRSQLAAQALARLGFENVGHLKGGYALHQY”, the protein production result was “failed”.

As to “MMNRVILVGRLTKDPDLRYTPNGVAVATFTLAVNRAFANQQGEREADFINCVIWRKQAENVANYLKKGSLAGVDGRLQTRNYEGQDGKRVYVTEVLAESVQFLEPRNGGGEQRGSFNQQPSGAGFGNQSSNPFGQSSNSGNQGNQGNSGFTKNDDPFSNVGQPIDISDDDLPF”, the protein production result is “failed”. For the sequence “MMPPNQPLATYLDDAPSHGGMMRERRYYRAYGLTVASDVALPELEPTEPAAADILIAIGTIDMPKPSSEAATIFRFEPDRQYLAWHAVGAFLISDADRIDIEPAPGVDDALLAFPLLGPVMALLLHQRGLLVLHASAIAAAGKGAIFMGDKGAGKSTTASALIRAGHELLTDDVVALDLARPDAPMIVAGFPQIKLAADAAAAISLGRAEVRPQVHPAIEKMQHRLHGAFSGGMVPATRIYVLERGAKAAITALPGIAALPAIIKFSYVTRFGRAALSGDFAALHLRQCSAIANHVGVFRLEVPTGLDRIGEAVALVESDLAAGDLAAGRRRR”, the protein production result is “failed”. The result for “MMQSITTFMAALGKYDFLQSALITAIMVGVMSGIIGSFIILRGMSMMGDAISHAVLPGVAVAYMLGINVLIGASVFGILAASLIGFVASRSKIKTDTSIGIVFSAFYALGFILISLAESSTNLHHILFGNILAVSDTDMMTTTVVLGLVILFVAFFYKELLITSFDPTFAKTYGLKVQLLHYALMLVLTLVTVSALQTVGIILVVAMLITPAATAFLWTERLAVMLGLSALIGVLSSVVGLYLSYTLNWASGPAIVLVAAIFFGISFIISPKQALLPTLWKGQAAARRVTA” reads “failed”; that for “MMRLLGILFILLSSSFNVYAQLPQVSAGSIERLTSFPSAFVPPRNIDIWLPAGYDKQQRYAVLYMHDGQMLFDATTSWNKQEWQIDEVASRLIKAGKTQPFIVVGIDNAGENRHSEYFPQQPFENLSQAQQTALYQLQRTKNQALFSQQVYSDRYLKFLVTELKPYIDSHYSVYTDAAHTFVMGSSMGGLISLYAISEYPHIFGGAACLSTHWPGTFEQQNNPIPPAFFNYMQQKLPDPSTHKLYFDHGTATLDAWYPQLQAKADKIIEAKGYTSQNWQSLIFEGAEHSEHAWAARLDIPLIFLLA”, “failed”; that for “MMRQPRARTMTMRDDIRDLPANDDRMTRFLGGSPMAVAFRLILMSILVGVVLAAIGLDPWNIITSIRLLFERIWDLGFDAINGLWRYFLLGAVIVIPIWLLTRLASTPRGR”, “failed”.

Consider “MMRTGFQGVARLVHHKALYRSPQTLPRLHLASAFGSSTDSLVARFCGEKTDLKDYALPNASWCPDMLSLYQEFLEKTKSGSWVKLPSFKSNRDHIRGLKLPFGLVAASDKQDWRLFTRSIQLEGQGYEYVIFFHPSEKKSVCLFQPGPYLEGAPGFAHGGSLAALMDETYSKTAYLAGEGLFTLSFNIKFKNLIPVGSLAVLDLQVEKIEDQKLYMSCIAQSRDKQTVYAKSSGVFLQLQLEEEQSGEQ”, for which the protein production entry is listed as “failed”.

For the sequence “MMSAVPVSLPVKMLVTRHISPDRYGDFLAWMRQGEILAAGFPGFLGSGVLQPPEGGDQYQIVLRFDSEASLARWEQSLPRRMWLERGAALVRASHARRVTGMDSWFGAPAGAPPRWKQAVSIWLVYFPMLLLFSTALDAQLNALPLFWRVLATTLCMTPVLSFLCIPLVTRVLRGWLHPRAVGAAD”, the protein production entry is recorded as “failed”. The value for “MMSNLCKYGPPPDSDSDSSYDGFYFSDKVKRSKPAPYVDPEQKLYDAVVAGDLKTMQEEMRKLVLQVDQPVKGGLNLLMLACREGHYKIVEWLLERAGANVNRQLDSLMPLMMACNTTHKDPCLAERIVGLLLRHGAVINVSEKYGMTPFMFACQNGFAGVVRLLIKDASFDAVDNQGCTAIFHAIEKNHVEVVKLLVEAGANATIANNKGYTPTQVAECHGYYDLLEILPRPASTYLVPTHFLGYNTLRDHIPRIFLKSDCPEYFQELNGILEAINIGNMVQYFAIARISLADFLVMDEQSLREIGIEYPIFRHKILTGILDFHLHHWSNSSIARVKKDEMNNFYEILLITASHLQHLVIIQASLRFILKNQEHNKMGQPSEMQVAAMKSNLQGYRDVLNQITKTVKYLGSFSPSQNPLFIDFNEILAERKRKKVRSYFKYTTIILGISVFICLKCKWFS” was “failed”; that for “MMSQSERPDVAEIRVPFRDVDMNGQMFLASYISYAESVLASFWSSRPDVDDEPVYSPSKVSCFLHRPLHYDEPATFTATIDKIGVRSIGFLISIDTGEERAAEVEIIWQAHAPEDQSPASLPEETRDWLYRFLN” was “failed”; that for “MMSTTLNTRQATTADIPFLARIEYEASLPPLNHCFWDDLLDGTGTTALQFIEAELKADACNWGNVPDFLILEAGGQPVAAAAGYVPGTDDYCPLCLSQLGAIAKELNWGEETLEGFREHYVGLWGGNLRPLFLTPQATWIIENVAVLPEARGQGFGKALLRALLAKGRSQGHEFAGIMVINGNDRARHTYESVGFKPYQTFYKDYFWEQFKIDFPGVTKFGMRLN” was “failed”. For “MMSYDAETGIAKVKCQSQSTCGACSARETCGTESLSELNGKRGEHIFTLETITPLRTDQMVEIGLEEKSMLFSALLMYIVQLFTLLVATLLSSYISENELIRAILIFMLTALSFVMVKRYTRKLGQQTEFQSVLLRVLF”, the protein production result is “failed”. The value for “MMTALATVTGVERHGKQYEIDLSCEQQTSCSSCSSQKSCGTGVVTKAIGNKSLSWHLRTEKNVQVGQVVEIGFPESSLIKS” was “failed”. With “MMTFNLREQQKRLQARMDELRAEIAFAQKGEKPWPYRSCLMREGRGYCEKHGEYHTHILVWSDRNGEDREEISCCPDCLIAEANDLTMELSSIKAEELTDNAGIALRFRDCEFDNYLEVNPGAARNLAACRRYAENWPDMLENGTSLVMTGSCGTGKNHLAVAMAKHIIRNYLASVEITDVMRLTRAVKNCWRNDSEKTADEVIERYASMDLLIIDEVGVQFGSAAEMAILQEIINARYESILPTILISNLSPEELWAFISPRIADRITDGGRNWLSFNWPSYRSRIRGVAALEHHHHHH”, the protein production entry is given as “failed”. As for “MMTKYGVVGTGYFGAELARFMSKVEGAKITAIYDPVNAAPIAKELNCVATATMEALCSHPDVDCVIIASPNYLHKAPVIAAAKAGKHVFCEKPIALNYQDCKDMVDACKEAGVTFMAGHVMNFFHGVRHAKALIKAGEIGEVTQVHTKRNGFEDVQDEISWKKIRAKSGGHLYHHIHELDCTLFIMDETPSLVSMAAGNVAHKGEKFGDEDDVVLITLEFESGRFATLQWGSSFHYPEHYVLIEGTTGAILIDMQNTAGYLIKAGKKTHFLVHESQAEDDDRRNGNISSEMDGAIAYGKPGKRTPMWLSSIMKLEMQYLHDVINGLEPGEEFAKLLTGEALEHHHHHH”, the protein production result is reported as “failed”.
